Assay results reported in patent US20240270846A1 (published 2024).
Substitutions are numbered along the chain they refer to. Numbers in names are those of the source. Where no end group is shown, it is not given here.

How the values were obtained:
[1] = target: human CD137 expressed on cells (human, UniProt Q07011 24-255); assay: cell-based or functional assay
[2] = target: T1, CD3 epsilon peptide antigen (human, also: biotin-labeled as coated antigen, free as competitor, biotin position not given here); assay: ELISA, IgG supernatant, biotinylated antigen on streptavidin plate
T1 construct: also called biotin-labeled CD3 epsilon peptide; CD3 peptide
T1 peptide: QDGNEEMGGITQTPY

[3] = target: T2, biotin-labeled human CD137 fused to human IgG1 Fc fragment (human, biotin-labeled); assay: ECL, IgG with biotinylated antigen
T2 construct: also called human CD137-Fc; biotin-human CD137-Fc
T2 sequence (chain, as listed by the source limits assumed): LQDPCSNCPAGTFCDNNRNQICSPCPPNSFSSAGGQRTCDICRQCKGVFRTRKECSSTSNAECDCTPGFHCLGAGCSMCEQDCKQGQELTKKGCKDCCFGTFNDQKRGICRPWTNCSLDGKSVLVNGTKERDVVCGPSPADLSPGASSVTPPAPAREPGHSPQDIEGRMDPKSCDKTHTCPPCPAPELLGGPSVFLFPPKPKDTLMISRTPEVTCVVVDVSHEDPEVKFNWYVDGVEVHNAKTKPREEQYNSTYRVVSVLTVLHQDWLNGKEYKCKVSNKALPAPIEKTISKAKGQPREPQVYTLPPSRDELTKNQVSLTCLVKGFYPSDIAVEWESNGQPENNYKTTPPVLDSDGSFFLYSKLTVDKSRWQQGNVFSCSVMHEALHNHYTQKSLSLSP

[4] = target: T1, CD3 epsilon peptide antigen; assay: ECL, IgG with biotinylated antigen
[5] = target: T3, recombinant human CD137 (human, UniProt Q07011 24-186); assay: SPR (Biacore T200, 37 degrees C), antibody captured by anti-human Fc, antigen as analyte, 1:1 model
T3 construct: also called hCD137
T3 sequence (Q07011 24-186 limits assumed): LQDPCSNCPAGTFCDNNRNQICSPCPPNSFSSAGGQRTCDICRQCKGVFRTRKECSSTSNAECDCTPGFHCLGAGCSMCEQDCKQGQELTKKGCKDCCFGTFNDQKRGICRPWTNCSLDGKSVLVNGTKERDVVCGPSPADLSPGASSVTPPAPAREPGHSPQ

[6] = target: T4, recombinant human CD3 (human, UniProt P07766 23-126); assay: as above
T4 construct: also called hCD3
T4 sequence (P07766 23-126): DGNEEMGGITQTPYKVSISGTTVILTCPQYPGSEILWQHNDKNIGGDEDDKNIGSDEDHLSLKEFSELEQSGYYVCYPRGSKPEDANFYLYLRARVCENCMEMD

[7] = target: T5, biotin-labeled cynomolgus monkey CD137 fused to human IgG1 Fc fragment (cynomolgus monkey, UniProt Q07011 24-186 (human entry), limits assumed, biotin-labeled); assay: beads ELISA, biotin labeled cyno CD137-Fc
T5 construct: the assay used the fusion to human IgG1 Fc; also called cyno CD137-Fc
T5 chain: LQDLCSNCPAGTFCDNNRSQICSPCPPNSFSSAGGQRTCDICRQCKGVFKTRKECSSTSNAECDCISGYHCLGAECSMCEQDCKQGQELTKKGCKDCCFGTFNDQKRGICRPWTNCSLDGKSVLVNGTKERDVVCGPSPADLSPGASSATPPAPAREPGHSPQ

Sequence of human CD137 expressed on cells (Q07011 24-255): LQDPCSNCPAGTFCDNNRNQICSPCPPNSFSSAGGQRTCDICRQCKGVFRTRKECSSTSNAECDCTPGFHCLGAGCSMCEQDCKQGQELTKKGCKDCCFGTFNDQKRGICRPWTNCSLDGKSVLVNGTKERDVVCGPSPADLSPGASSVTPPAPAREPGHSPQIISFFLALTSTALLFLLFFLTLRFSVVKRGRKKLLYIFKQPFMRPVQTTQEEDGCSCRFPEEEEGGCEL

B1: GPC3/CD137 × CD3 (other)
VH 1: QVQLQQWGAGLLKPSETLSLTCAVYGGSFSGYYWSWIRQSPEKGLEWIGEINHGGYVTYNPSLESRVTISVDTSKNQFSLKLSSVTAADTAVYYCARDYGPGNYDWYFDLWGRGTLVTVSS
VL 1: EIVLTQSPATLSLSPGERATLSCRASQSVSSYLAWYQQKPGQAPRLLIYDASNRATGIPARFSGSGSGTDFTLTISSLEPEDFAVYYCQQRSNWPPALTFGGGTKVEIK
VH 2: QVQLVESGGGLVQPGRSLRLSCAASGFTFSNAWMHWVRQAPGKGLEWVAQIKDRANSYNTYYAESVKGRFTISRDDSKNSIYLQMNSLKTEDTAVYYCRYVHYTTYAGSSFSYGVDAWGQGTTVTVSS
VL 2: DIVMTQSPLSLPVTPGEPASISCRSSQPLVHSNRNTYLHWYQQKPGQAPRLLIYKVSNRFSGVPDRFSGSGSGTDFTLKISRVEAEDVGVYYCGQGTQVPYTFGQGTKLEIK
VH 3: QVQLVQSGAEVKKPGASVTVSCKASGYTFTDYEMHWIRQPPGEGLEWIGAIDGPTPDTAYSEKFKGRVTLTADKSTSTAYMELSSLTSEDTAVYYCTRFYSYTYWGQGTLVTVSS
VL 3: B1 VL 2
B1 was tested, and the “Luminescence against CD137 positive cells relative to that against GPC3 positive cells, 1 nM” value [1] was roughly 107% and the “Luminescence against CD137 positive cells relative to that against GPC3 positive cells, 10 nM” value [1] was roughly 128%.

B2: dBBDu_115 (antibody, IgG1, V domains shown)
VH: QVQLVESGGGLVQPGRSLRLSCAASGFTFSNAWMHWVRQAPGKGLEWVAQIKDKANSYNTYYAPSVKGRFTISRDDSKNSIYLQMNSLKTEDTAVYYCRYVHYGSSYGFLFAGYGVDAWGQGTTVTVSS
VL: B1 VL 2 with P28S
notes: IgG1 format with GLS3000 light chain
B2: binds [2].

B3: dBBDu_011 (antibody, V domains shown)
VH: B2 VH with A55S, N56S, S57L, S105A
VL: B1 VL 2 with P28S
notes: Converted to IgG: VH joined to human IgG1 constant domains; also called clone 011
B3: binds [3]; binds [4].

B4: GPC3/CD137xCD3 trispecific antibody (other)
VH 1: B1 VH 1
VL 1: B1 VL 1
VH 2: B1 VH 2
VL 2: B1 VL 2
VH 3: B1 VH 3
VL 3: B1 VL 2
notes: Made by Fab-arm exchange of mAb A (CrossMab, each arm carrying Fv A1 and Fv A2) with mAb B (conventional IgG); Fc is Fc gamma R silent (L235R, G236R, S239K) and deglycosylated (N297A); also called GPC3/CD137 × CD3; anti-GPC3/CD137×CD3
B4 was tested, and the Kd [5] was 37.7 nM, the koff [5] was 0.0206 s⁻¹ and the kon [5] was 547000 M⁻¹ s⁻¹. It also gave a Kd [6] of 19.7 nM, a koff [6] of 0.00161 s⁻¹ and a kon [6] of 81800 M⁻¹ s⁻¹.

B5: DADU01_3 #001 (antibody, human IgG1, V domains shown)
VH: QVQLVESGGGLVQPGRSLRLSCAASGFTFSIAWMHWVRQAPGKGLEWVAQIKDRVNAYEAYYAPSVKGRFTISRDDSKNSIYLQMNSLKTEDTAVYYCRYVHYASYYDLLGYGGVDAWGQGTTVTVSS
VL: B1 VL 2 with P28S
notes: VH in human IgG1 CH1-Fc plasmid; GLS3000 light chain; also called dBBDu_126; dBBDu126
B5: no binding (tested: 25 micro L of 50 ng/micro L purified IgG) [7].
